The source of these data is the supplement of paper PMC7125110.

First the molecules themselves.
B1: glmS ribozyme (parent)
chain: AUAAAAGCGCCAGAACUACAGAAAUGUAGUUGACGAGGAGGAGGUUUAUCGAAUUUUCGGCGGAUGCCUCCAAA

± gives the standard error. For some of these results: Fewer inactive variants are shown than the library holds. A value given as a limit tells only on which side of the number the result lay.

Common to all, as to conditions: with glucosamine-6-phosphate
In series [1] the parent is B1. Briefly: kcat; higher = faster cleavage; RNA array. The method in brief: (§1)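 Barcoded ribozyme variants on sequenced MiSeq chips were transcribed in situ by E. coli RNA polymerase and followed at 37 °C through a hybridised Cy3 probe. Glucosamine-6-phosphate at 40 μM to 10 mM in HEPES/KCl/Mg(OAc)2 buffer was flowed in, and tiles were imaged over ~14 h. Signals were normalised to baseline and to non-cleaving reference variants, and per-tile medians were fit to one- or two-exponential decays to give kobs. Weighted Michaelis–Menten fits across concentrations gave kcat and KM.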

In series [2] the parent is B1. As to the kind of experiment: self-cleavage kobs at 40 uM GlcN6P; higher = faster cleavage; RNA array. The method in brief:
as §1

In series [3] the parent is B1. As to the kind of experiment: self-cleavage kobs at 2500 uM GlcN6P; higher = faster cleavage; RNA array. Summed up: as §1
In series [4] the parent is B1. Briefly: self-cleavage kobs at 10000 uM GlcN6P; higher = faster cleavage; RNA array. Summed up: as §1
Variants of B1 are the subject of series [5]. As to the kind of experiment: KM; higher = weaker cofactor use; RNA array. The method in brief: as §1
In series [6] the parent is B1. Briefly: self-cleavage kobs at 160 uM GlcN6P; higher = faster cleavage; RNA array. The method in brief: as §1
Variants of B1 are the subject of series [7]. As to the kind of experiment: self-cleavage kobs at 640 uM GlcN6P; higher = faster cleavage; RNA array. Summed up:
as §1

As a reminder, the kcat is the maximal rate divided by the concentration of active sites. Regarding C16G C58G, in the series with glucosamine-6-phosphate [1], the catalytic constant (kcat) is 6.23e-05 ± 1.2e-05 s⁻¹. Further, the “self-cleavage kobs at 40 uM GlcN6P” value with glucosamine-6-phosphate [2] was below 1e-05 s⁻¹. In the series with glucosamine-6-phosphate [3], the “self-cleavage kobs at 2500 uM GlcN6P” value worked out at 7.72e-05 ± 1.5e-05 s⁻¹. Also, the “self-cleavage kobs at 10000 uM GlcN6P” value with glucosamine-6-phosphate [4] is 5.56e-05 ± 8.3e-06 s⁻¹.
What is called KM is the concentration of substrate that gives half-maximal velocity. As for G37C A64G, the kcat with glucosamine-6-phosphate [1] was found to be 9.23e-05 ± 9.1e-06 s⁻¹. The KM in the series with glucosamine-6-phosphate [5] was 2450 ± 790 µM. Further, the “self-cleavage kobs at 2500 uM GlcN6P” value with glucosamine-6-phosphate [3] was 4.35e-05 ± 9.1e-06 s⁻¹. Further, the “self-cleavage kobs at 10000 uM GlcN6P” value with glucosamine-6-phosphate [4] is 7.49e-05 ± 8e-06 s⁻¹.
With C16G U47G, in the series with glucosamine-6-phosphate [1], the kcat is 0.000729 ± 0.00014 s⁻¹. Also, the Michaelis constant (KM) in the series with glucosamine-6-phosphate [5] is 1210 ± 400 µM. For the same variant, in the series with glucosamine-6-phosphate [6], the “self-cleavage kobs at 160 uM GlcN6P” value was determined as 7.03e-05 ± 1.6e-05 s⁻¹. Besides, in the series with glucosamine-6-phosphate [7], the “self-cleavage kobs at 640 uM GlcN6P” value worked out at 0.000307 ± 4.8e-05 s⁻¹. In the series with glucosamine-6-phosphate [3], the “self-cleavage kobs at 2500 uM GlcN6P” value was found to be 0.000604 ± 0.0001 s⁻¹. Besides, the “self-cleavage kobs at 10000 uM GlcN6P” value with glucosamine-6-phosphate [4] came to 0.000565 ± 0.0001 s⁻¹.
Take G13C G41A: the kcat with glucosamine-6-phosphate [1] stood at 5.76e-05 ± 4.7e-06 s⁻¹. Besides, the “self-cleavage kobs at 40 uM GlcN6P” value with glucosamine-6-phosphate [2] is below 1e-05 s⁻¹. In the series with glucosamine-6-phosphate [7], the “self-cleavage kobs at 640 uM GlcN6P” value is below 1e-05 s⁻¹.
As to G51U C68G, the catalytic constant (kcat) with glucosamine-6-phosphate [1] came out at 4.24e-05 ± 1.1e-05 s⁻¹. The “self-cleavage kobs at 640 uM GlcN6P” value with glucosamine-6-phosphate [7] came to 5.2e-05 ± 9.7e-06 s⁻¹. Besides, the “self-cleavage kobs at 2500 uM GlcN6P” value in the series with glucosamine-6-phosphate [3] was 4.27e-05 ± 1e-05 s⁻¹.
With A12G C68U, the catalytic constant (kcat) with glucosamine-6-phosphate [1] is 0.000271 ± 1.9e-05 s⁻¹. The KM with glucosamine-6-phosphate [5] is 2400 ± 390 µM. Further, in the series with glucosamine-6-phosphate [6], the “self-cleavage kobs at 160 uM GlcN6P” value was 3.11e-05 ± 1.2e-05 s⁻¹. Further, in the series with glucosamine-6-phosphate [7], the “self-cleavage kobs at 640 uM GlcN6P” value amounted to 5.55e-05 ± 6.8e-06 s⁻¹. Also, the “self-cleavage kobs at 2500 uM GlcN6P” value with glucosamine-6-phosphate [3] was found to be 0.000137 ± 1.5e-05 s⁻¹. In the series with glucosamine-6-phosphate [4], the “self-cleavage kobs at 10000 uM GlcN6P” value amounted to 0.000219 ± 1.5e-05 s⁻¹.
Regarding U55C C70U, the catalytic constant (kcat) in the series with glucosamine-6-phosphate [1] is 0.00171 ± 0.00048 s⁻¹. The Michaelis constant (KM) in the series with glucosamine-6-phosphate [5] turned out to be 5960 ± 3000 µM. The “self-cleavage kobs at 40 uM GlcN6P” value with glucosamine-6-phosphate [2] came out at 2.44e-05 ± 9e-06 s⁻¹. Besides, the “self-cleavage kobs at 160 uM GlcN6P” value with glucosamine-6-phosphate [6] came out at 7.16e-05 ± 3e-05 s⁻¹. Further, the “self-cleavage kobs at 640 uM GlcN6P” value in the series with glucosamine-6-phosphate [7] was found to be 0.000172 ± 4.7e-05 s⁻¹. For the same variant, the “self-cleavage kobs at 2500 uM GlcN6P” value with glucosamine-6-phosphate [3] is 0.000413 ± 8.4e-05 s⁻¹. Also, in the series with glucosamine-6-phosphate [4], the “self-cleavage kobs at 10000 uM GlcN6P” value turned out to be 0.00111 ± 0.00012 s⁻¹.
Turning to U30C C58G, the turnover number (kcat) in the series with glucosamine-6-phosphate [1] amounted to 2e-05 ± 1.6e-06 s⁻¹. The “self-cleavage kobs at 640 uM GlcN6P” value with glucosamine-6-phosphate [7] was below 1e-05 s⁻¹.
Consider C11A C16U, for which, in the series with glucosamine-6-phosphate [1], the kcat was found to be 0.000159 ± 1.5e-05 s⁻¹. In the series with glucosamine-6-phosphate [5], the Michaelis constant (KM) was determined as 1110 ± 340 µM. Besides, the “self-cleavage kobs at 640 uM GlcN6P” value with glucosamine-6-phosphate [7] came to 6.65e-05 ± 1.5e-05 s⁻¹. Also, the “self-cleavage kobs at 2500 uM GlcN6P” value in the series with glucosamine-6-phosphate [3] stood at 9.79e-05 ± 1.5e-05 s⁻¹. Moreover, the “self-cleavage kobs at 10000 uM GlcN6P” value in the series with glucosamine-6-phosphate [4] was 0.000151 ± 1.8e-05 s⁻¹.
The matching figures for A42U U46G: 5.79e-05 ± 3.4e-06 s⁻¹, 901 ± 260 µM, 2.81e-05 ± 1.4e-05 s⁻¹, 3.86e-05 ± 1.2e-05 s⁻¹ and 5.41e-05 ± 8.3e-06 s⁻¹.
Take G60A C70G: in the series with glucosamine-6-phosphate [1], the kcat was 1.99e-05 ± 7.1e-06 s⁻¹.
U30A G38A: in the series with glucosamine-6-phosphate [1], the kcat is below 1e-05 s⁻¹. In addition, in the series with glucosamine-6-phosphate [2], the “self-cleavage kobs at 40 uM GlcN6P” value was below 1e-05 s⁻¹. Besides, the “self-cleavage kobs at 10000 uM GlcN6P” value with glucosamine-6-phosphate [4] was below 1e-05 s⁻¹.
In the case of C50U C61A C68U, the catalytic constant (kcat) with glucosamine-6-phosphate [1] came out at 2.59e-05 ± 6.9e-06 s⁻¹.
Take A64G: the kcat with glucosamine-6-phosphate [1] was determined as 0.0475 ± 0.0029 s⁻¹. The KM with glucosamine-6-phosphate [5] stood at 2080 ± 150 µM. In addition, the “self-cleavage kobs at 40 uM GlcN6P” value with glucosamine-6-phosphate [2] was 0.000914 ± 1.8e-05 s⁻¹. For the same variant, the “self-cleavage kobs at 160 uM GlcN6P” value with glucosamine-6-phosphate [6] stood at 0.0031 ± 0.0002 s⁻¹. In the series with glucosamine-6-phosphate [7], the “self-cleavage kobs at 640 uM GlcN6P” value came to 0.0109 ± 0.0004 s⁻¹. In addition, the “self-cleavage kobs at 2500 uM GlcN6P” value with glucosamine-6-phosphate [3] was 0.0249 ± 0.0011 s⁻¹. Also, the “self-cleavage kobs at 10000 uM GlcN6P” value with glucosamine-6-phosphate [4] came to 0.0412 ± 0.0018 s⁻¹.
As to G51C C68A, the kcat with glucosamine-6-phosphate [1] is below 1e-05 s⁻¹. Also, the “self-cleavage kobs at 40 uM GlcN6P” value in the series with glucosamine-6-phosphate [2] was below 1e-05 s⁻¹.
For the variant G40U A53C, in the series with glucosamine-6-phosphate [1], the turnover number (kcat) was 0.00186 ± 0.00029 s⁻¹. Moreover, the KM in the series with glucosamine-6-phosphate [5] was 2780 ± 760 µM. In addition, the “self-cleavage kobs at 40 uM GlcN6P” value in the series with glucosamine-6-phosphate [2] came out at 4.37e-05 ± 1.2e-05 s⁻¹. In addition, the “self-cleavage kobs at 160 uM GlcN6P” value with glucosamine-6-phosphate [6] turned out to be 0.00012 ± 3.1e-05 s⁻¹. In addition, the “self-cleavage kobs at 640 uM GlcN6P” value in the series with glucosamine-6-phosphate [7] stood at 0.000309 ± 4.6e-05 s⁻¹. Moreover, in the series with glucosamine-6-phosphate [3], the “self-cleavage kobs at 2500 uM GlcN6P” value turned out to be 0.00086 ± 0.0001 s⁻¹. Further, in the series with glucosamine-6-phosphate [4], the “self-cleavage kobs at 10000 uM GlcN6P” value amounted to 0.00149 ± 0.00016 s⁻¹.
On to G41A C71U, for which the turnover number (kcat) in the series with glucosamine-6-phosphate [1] came out at 0.000308 ± 7.8e-05 s⁻¹. Besides, the Michaelis constant (KM) with glucosamine-6-phosphate [5] turned out to be 697 ± 340 µM. The “self-cleavage kobs at 40 uM GlcN6P” value in the series with glucosamine-6-phosphate [2] was 3e-05 ± 6.9e-06 s⁻¹. Further, the “self-cleavage kobs at 160 uM GlcN6P” value with glucosamine-6-phosphate [6] turned out to be 5.5e-05 ± 7.2e-06 s⁻¹. Moreover, the “self-cleavage kobs at 640 uM GlcN6P” value with glucosamine-6-phosphate [7] amounted to 0.000132 ± 1.5e-05 s⁻¹. Besides, the “self-cleavage kobs at 2500 uM GlcN6P” value in the series with glucosamine-6-phosphate [3] turned out to be 0.000414 ± 5e-05 s⁻¹. Further, the “self-cleavage kobs at 10000 uM GlcN6P” value with glucosamine-6-phosphate [4] was determined as 0.00026 ± 3e-05 s⁻¹.
